# Assays:
# Test in all cases: cell-based or functional assay
# [1] = target: T1, hCMV UL128 + UL130 + UL131A (co-expressed in HEK293T cells) (human cytomegalovirus, UniProt P16837 28-171; P16772 1-214; F5HET4 19-129)
# [2] = target: T1, hCMV UL128 + UL130 + UL131A …; remark: listed apart in the source
# [3] = target: T2, hCMV gH (expressed in HEK293T cells) (human cytomegalovirus, UniProt P12824 24-743)
# [4] = target: T2, hCMV gH (expressed in HEK293T cells); remark: listed apart in the source
# [5] = target: T3, hCMV UL130 + UL131A (co-expressed in HEK293T cells) (human cytomegalovirus, UniProt P16772 1-214; F5HET4 19-129)
# [6] = target: T3, hCMV UL130 + UL131A (co-expressed in …); remark: listed apart in the source
# T1 sequence (P16837 28-171 limits assumed, one chain of several): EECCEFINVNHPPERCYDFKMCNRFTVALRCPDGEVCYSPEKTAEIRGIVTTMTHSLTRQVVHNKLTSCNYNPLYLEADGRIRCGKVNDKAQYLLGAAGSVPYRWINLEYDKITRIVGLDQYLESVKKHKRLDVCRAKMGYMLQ
Binder,50% Neutralization ARPE [1] [µg/mL],50% Neutralization MRC-9 [1] [µg/mL],90% Neutralization ARPE [2] [µg/mL],90% Neutralization MRC-9 [2] [µg/mL],50% Neutralization ARPE [5] [µg/mL],50% Neutralization MRC-9 [5] [µg/mL],90% Neutralization ARPE [6] [µg/mL],90% Neutralization MRC-9 [6] [µg/mL],also measured
"8C15 (antibody, V domains shown) VH: QVQLQESGPGLVKPSETLSLTCTVSGGSIRSYYWSWIRQPPGKGLEWIGHIYYSGNTNYSPSLQSRVTISLDTPKNQFSLRLSSVTAADTAVYYCARHDVIVVRGVFDVWGQGTVVTVSS VL: QSALTQPASVSGSPGQSITISCTGTSSDIGTYNLVSWYQQHPGKAPKVLIYDGSKRPSGVSSRFSASKSGNTASLTISGLQAEDETDYYCCSYAGTSDFFVVFGGGTKLTVL",< 0.001,> 2,0.0025,> 10,–,–,–,–,–
"11B12 (antibody, V domains shown) VH: QMQLVQSGPQVKKPGTSVKVSCKASGFTFTSSAMQWVRQARGQRPEWIGWIVLGSGNTNYAQKFQERVTLTRDMSTATAYMELSSLRSEDTAVYYCAADRGRGGYNVYTYWGQGTLVAVSS VL: EIVMTQSPGTLSLSPGERATLSCRASQTISNTYVAWYQQKPGQAPRLLIYGASSRATGIPDRFSGSGSGTDFTLTIRRLEPEDFAVYYCQQNGQSPWTFGQGTNVEIK",–,–,–,–,–,–,–,–,50% Neutralization ARPE [3]: ≤ 2 µg/mL; 50% Neutralization MRC-9 [3]: ≤ 2 µg/mL; 90% Neutralization ARPE [4]: 1.2 µg/mL; 90% Neutralization MRC-9 [4]: 3.5 µg/mL
"8J16 (antibody, V domains shown) VH: QVQLQESGPGLVKPSETLSLTCSVSGGFTSSYYWSWIRQAPGKGLEWIGYVYYGESTDYNPSLKSRATISIDTSKNQFSLKLSSVTAADTAVYYCAREVDKRGFDYWGQGALVTVSS VL: EIVLTQSPGTLSLSPGERATLSCRASQSVSGGYLAWYQQEPGQAPRLVIYGASSRATGIPDRFSASGSGTDFTLTITRLEPEDFAVYYCQQYGRTPLTFGGGTKVEIK",< 0.001,> 2,0.0008,> 10,–,–,–,–,–
"13H11 (antibody, V domains shown) VH: QVQLVQSGAEVKKPGASVKVSCKASGYTFTNYYIHWVRQAPGQGLEWMGIIHPSSGGTSYAQKFQGRVTMTRDTSTSTVSMDLSSLRSEDTAVYYCGRAFRILGLSDVFVNDWGQGTVVTVSS VL: DIQMTQSPSSLSASVGDRVTITCRASQGINNYLAWYQQKPGKVPKLLIYAASTLQSGVPSRFSGSGSGTAFTLTILSLQPEDVATYYCQKYNSAPFTFGPGTKVDIK",–,–,–,–,–,–,–,–,50% Neutralization ARPE [3]: < 0.01 µg/mL; 50% Neutralization MRC-9 [3]: ≤ 2 µg/mL; 90% Neutralization ARPE [4]: 0.4 µg/mL; 90% Neutralization MRC-9 [4]: 1.12 µg/mL
"2C12 (antibody, V domains shown) VH: QITLRESGPTLVKPTQTLTLTCTFSGFSLNTNGVGVGWIRQPPGKALEWLALIYWNGNEGYSPSLKSRLTITKDTSKNQVVLTMTNMDPVDTATYYCVHWPQGLTTVTRLAFDIWGQGTMVTVSS VL: QSALTQPRSVSGSPGQSVTISCTGTTSDVGRYNFVSWYQQHPGKAPKLLMYDVSQRPSGVPSRFSGSKSGNTASLTISGLQAEDEAVFYCCSYAGGNFFSYVFGTGTKVTVL",< 0.01,≤ 2,0.006,> 10,–,–,–,–,–
"4I22 (antibody, V domains shown) VH: QVQLVESGGGVVQPGRSLRLSCVASGFTFSSYAMHWVRQAPGKGLEWVAVISYDGDNKFYADSVKGRFRISRDTSKNTLYLEMNSLRAADTAIYYCAREELVGLMPPYYNYGLDVWGQGTTVTVSS VL: QSVLTQPPSVSAAPGQKVTISCSGSNSNIGNNYVSWYQQLPGRAPKLLIYDNDHRPSGIPDRFSGSKSGTSATLVITGLQTGDEADYYCETWDTSLSAAVVFGGGTKLTVL",–,–,–,–,< 0.01,> 2,0.0015,> 10,–
"3G16 (antibody, V domains shown) VH: QSALTQPASVSGSPGESITISCTGTISDVGAYNSVSWYQQHSGTAPELIIYDVTNRPAGVSSRFSGSKSGNTASLTISWLQSEDEAEYYCSSYTTSDTYVFGSGTQVTVL V domain: RAQLVQSAAEMKNPGASVKVSCEASGYTFTGYYVHWMRQAPGQGLEWMGWINPMTGATKSPQKFQGRVTMTRDTSTTATHIELTRLRSDDSAVFFCARGGPTSTRITGKRHFDLWGRGTLITVAS",–,–,–,–,–,–,–,–,50% Neutralization ARPE [3]: ≤ 2 µg/mL; 50% Neutralization MRC-9 [3]: ≤ 2 µg/mL; 90% Neutralization ARPE [4]: 0.3 µg/mL; 90% Neutralization MRC-9 [4]: 1 µg/mL
"4N10 (antibody, V domains shown) VH: QVQLVQSGAEVKKPGSSVRVSCKASGGTFSSYVIIWVRQAPGQGLEWMGGVIPIFDTVNYAQKFQGRVTITADESTSTAYMELSSLKSEDTAVYYCARGILAYCGGDCYNTPYGMDVWGQGTTVTVSS VL: DIQMTQSPSILSASVGDRVTITCRASQSISSWLAWYQQKPGKAPKLLIYKASSLEIGVPSRISGSGSGTEFTLTISSLQPDDFATYYCQQYNSSWTFGQGTKVEIK",–,–,–,–,< 0.001,≤ 2,0.02,> 10,–
"7B13 (antibody, V domains shown) VH: QVQLVESGGGVVQPGGSLRLSCAASGFSFSNYGMHWVRQAPGKGLEWVALIPSDGNYQYYTDSVKGRFTVSRDNSRNTLYLQMKSLRAEDTARYHCAHLGGGLFDFWGQGTLVTVSS VL: QSALNQPRSVSGSPGQSVSISCTGSSSDVGGYEFVSWYQHHPGKAPKLIIYDVDKRPSGVPDRFSGSRSGDTASLTISGLQAEDEADYYCYSSADTWVFGGGTKLTVL",< 0.001,> 2,0.003,> 10,–,–,–,–,–
"8L13 (antibody, V domains shown) VH: QVQLLESGGGVVQPGRSLRLSCAASGFTFSNYGMHWVRQAPGKGLEWVAVIWNDGSKKYYAESVKGRFTISRDNSKNTVYLQMNSLRAEDTAVYYCARDEGVQMVFAMPDYGMDVWGQGTTVTVSS VL: SYELTQPPSVSVSPGQTASITCSGDKLGDKFACWYQQRPGQSPILVIYQDSKRPSGIPERFSGSNSGNTATLTIRGTQAMDEADYYCQAWDSSTAHYVFGTGTKVTVL",–,–,–,–,< 0.01,> 2,0.001,> 10,–
"9I6 (antibody, V domains shown) VH: EVQLVQSGAEVKKPGESLKISCRESGDTFPAYWIAWVRQMPGKGLEWMGIIYPIDSETTYSPSFQGQVTISADKSINTAYLQWSSLKASDSAIYYCARGTSTGLREAFHIWGQGTMVTVSS VL: DVVMTQSPLSLAVTLGQPAYISCRSSQSLGYSDGNTYLNWFQQRPGQSPRRLIYEVSNRDSGVPDRFSGSGSGTDFTLKISRVEAEDVGTYYCMQGTHWPPMCSFGQGTKLEIK",< 0.001,> 2,0.0007,> 10,–,–,–,–,–
"10F7 (antibody, V domains shown) VH: EVQLVESGGGLVQPGRSLRLSCTASGFTFGDYAMSWFRQAPGKGLEWVGFIRSKAYGGTTEYAASVKGRFTISRDDSKSIAYLQMNSLKTEDTAVYYCTRASSLLWLLNPQPNFDYWGQGTLVTVSS VL: SYVLTQPPSVSVAPGQTARITCGGNNIGSNNVHWYQQKPGQAPVLVVYDDSDRPSGIPERFSGSNSGNTATLTISRVEAGDEADYYCQVWDSSSDHPVFGGGTKLTVL",–,–,–,–,< 0.01,≤ 2,0.002,> 10,–
"7I13 (antibody, V domains shown) VH: QVQLVESGGGVVQPGRSLRLSCAASGFTFSNYGMHWVRQGPGKGLEWVAVISYDASSKYYTDSVQGRFTISRDNSKNTLFLQMNSLRGEDTAVYYCAKALRYLDWFLSDPFDYWGQGTLVTVSS VL: EIVLTQSPGTLSLSPGERATLSCRASQSVSSDFLAWYQQKPGQAPRLLIYGASSRATGIPDRFSGSGSGTDFTLTISRLEPEDFAVYYCQQYAASPPFGQGTRLEIK",< 0.01,> 2,0.008,> 10,–,–,–,–,–
"10P3 (antibody, V domains shown) VH: EVQLVESGGGLVRPGGSLRLSCAASGFTFHNYRMNWVRQAPGKGLEWVANIKQDGSEKSYVDSVRGRFTTSRDNSKNSLYLQINSLRAEDTAVYYCARGEGYTYGVVYSYSAMDVWGQGTTVIVSS VL: SYELTQPPSVSVSPGQTARITCSGNVLPNQYASWYQQKPGQAPVLVIYKDTERPSGIPGRFSGSSSGTTVTLTISGVQAEDEADYYCQSADSSGADYVFGTGTKVTVL",–,–,–,–,< 0.001,> 2,0.0025,> 10,–
